± gives the half width of the 95% confidence interval.
Key:
[1] = folding stability dG unfold from trypsin proteolysis; higher = more stable
How it was run: (§1)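 Bayesian fitting of sequencing counts gave K50 for each design. Unfolding free energy followed by setting this against a sequence-predicted unfolded-state K50 and a shared folded-state K50, either per protease or with trypsin and chymotrypsin combined. The designs, under 80 residues and lacking cysteine, were digested in a PA-tagged cDNA display format at 11 threefold-diluted protease concentrations and without protease, and only those with AlphaFold2 dimer inter-PAE above 15 were kept.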

[2] = folding stability dG unfold from chymotrypsin proteolysis; higher = more stable
How it was run: as §1

[3] = folding stability dG unfold (combined trypsin and chymotrypsin); higher = more stable
How it was run: as §1

Sequence	folding stability dG unfold [1] [kcal/mol]	folding stability dG unfold [2] [kcal/mol]	folding stability dG unfold [3] [kcal/mol]
SAGGSAGGSKPGKPREIMIPFPDNWFMSIRVWPGRIEIENPDNGKEFEIPIGAPIEIELFPLDSAGGSAGGS [r12_227_TrROS]	1.98 ± 0.035	1.81 ± 0.095	1.89 ± 0.17
SAGGSAGGSKPIKTKATIPLPNGKTITADVEIVVLPDGNILLRVPSGKVILVPPNYPVTFEDASAGGSAGGS [r20_227_TrMRF]	1.71 ± 0.025	1.62 ± 0.021	1.67 ± 0.036
SAGGSAGGSKPRPIDIMFPNPENGRPVMIRIEYTKDKIKAEWYFGNKPQEKKIDDPEDLLEFISAGGSAGGS [r12_299_TrROS]	0.0886 ± 0.055	1.08 ± 0.1	0.754 ± 0.096
SAGGSAGGSKPVLKITVTNEKGEKQTISLDELQAETGLSAEEIAARLAALLPPGAKITIEPVPSAGGSAGGS [r12_399_TrROS_Hall]	1.81 ± 0.024	2.11 ± 0.023	1.98 ± 0.048
SAGGSAGGSKRKIKVDDVEPPPNGFMRVTLEVDDGKPLVPINIPPGQTPSEVKDQVKDLVEELSAGGSAGGS [r12_798_TrROS]	3.86 ± 0.31	3.74 ± 0.41	3.85 ± 0.49
SAGGSAGGSKTIEIVVPPNTTPEEIAKKLKELFPDAKITSVEVYVDKKTKKIVYVKVKIEVKPSAGGSAGGS [r12_822_TrROS_Hall]	2.68 ± 0.1	3.82 ± 0.057	3.46 ± 0.087
SAGGSAGGSKTIKIEIEKMSEEELKNLTAEEIAKLLGVKEVKVTKEKIEITLTEEELKKLEKKSAGGSAGGS [r12_178_TrROS_Hall]	0.257 ± 0.099	1.24 ± 0.022	0.856 ± 0.14
SAGGSAGGSKTILIVLPPGEELTPEQLKALAAALPPDATLTILVYDPETKELHVFTFKLPEGLSAGGSAGGS [r12_913_TrROS_Hall]	2.99 ± 0.069	4.14 ± 0.054	3.87 ± 0.081
SAGGSAGGSKTLIIKIKVEGLSEEEIAEELAKKLQEETGLKIKSVKIEKKDGYLYIEVEVEEPSAGGSAGGS [r12_781_TrROS_Hall]	3.86 ± 0.4	3.96 ± 0.17	4.15 ± 0.21
SAGGSAGGSKTVYRITIYNEKTGKKLVIEIEESMSEEEKEQKIKDLLKKLLPPGAKIKIEKVPSAGGSAGGS [r20_213_TrROS_Hall]	3.34 ± 0.44	4.44 ± 0.2	4.08 ± 0.25
SAGGSAGGSKTYKIKVEKLEDGTYKLKIIDKKTKKEYEITISKKNLPKIKEIKITKNGKIEIKSAGGSAGGS [r20_11_TrROS_Hall]	1.73 ± 0.026	3.08 ± 0.071	2.75 ± 0.12
SAGGSAGGSKVKIETVENEDGVKFERVVDEETGKTVFLAKNKKTGKLYLFVITPDGEIKVFELSAGGSAGGS [r12_474_TrROS_Hall]	1.42 ± 0.033	2.6 ± 0.049	2.27 ± 0.089
SAGGSAGGSKYYRVRFKEEIEITLENGEKLKIKKGDVIVVPSKEDLDRLKALFPNLEVEVEPVSAGGSAGGS [r12_987_TrROS_Hall]	3.16 ± 0.1	3.91 ± 0.043	3.7 ± 0.099
SAGGSAGGSLKPGQPYIMIRIKIQHPNGNTRTFNIMVPWNDIPQILDFLESHGFKIKDIEIFPSAGGSAGGS [r12_986_TrROS]	3.94 ± 0.21	5.42 ± 0.17	5.09 ± 0.2
SAGGSAGGSLLEDIKKALEIIKPPPIPVKVKVKIEYDPEKGELKVEVEFFGIKLKVEGEFKIESAGGSAGGS [r20_230_TrMRF]	2.07 ± 0.22	3.4 ± 0.16	3.04 ± 0.26
SAGGSAGGSLRLRVTFTVTVTFLDGNRLRPAKVEITVEIELEPIPPELLRPRPLPGDKLEYDLSAGGSAGGS [r12_1031_TrMRF]	2.72 ± 0.17	3.29 ± 0.045	3.16 ± 0.25

Sequence	folding stability dG unfold [1] [kcal/mol]	folding stability dG unfold [2] [kcal/mol]	folding stability dG unfold [3] [kcal/mol]
SAGGSAGGSMEVDIEVETLETEVSFLPGDLIKVKKLVKITLPNGEVLEEETEEIIPKSEIGKLSAGGSAGGS [r12_1028_JUSTAS]	0.808 ± 0.078	-0.00695 ± 0.12	0.419 ± 0.24
SAGGSAGGSMEVNLKVTVTYPDGTVVELEIPKVSTEDGKSVEDVAKEIEALPDVKEVEVEIVESAGGSAGGS [r12_199_JUSTAS]	0.847 ± 0.13	2.03 ± 0.1	1.55 ± 0.27
SAGGSAGGSMEVTYDEETGELTVRIEVDGKTLTLKFKSIEDLKAALEKLGIDVDDVKIVEIEPSAGGSAGGS [r12_834_TrROS_Hall]	4.18 ± 0.3	4.75 ± 0.089	4.67 ± 0.14
SAGGSAGGSMIDDIVEKLKIPPGTRIVFNDGEVKYFDNREDIKEWAKNGYPAEKLKNIVAFPESAGGSAGGS [r12_430_TrMRF]	-0.276 ± 0.15	0.491 ± 0.1	0.251 ± 0.12
SAGGSAGGSMIEVVKFPNGITLEYFPETNTYRAFNPSTNTTTTFPPGVSFEEAVEAVKKGNLVSAGGSAGGS [r12_832_JUSTAS]	4.1 ± 0.091	3.82 ± 0.017	3.88 ± 0.041
SAGGSAGGSMITLTLPDEEALRAYVEQLVADAGTEITEVTVTPLAPDTVEAEVSIDPTDPVGLSAGGSAGGS [r12_647_JUSTAS]	1.09 ± 0.022	0.426 ± 0.065	0.858 ± 0.098
SAGGSAGGSMKITINKWDPDNGNIMVTIQMPGQPVEIMIPWNNVDKLLEKLPFPGMKIDEIYPSAGGSAGGS [r12_23_TrROS]	1.11 ± 0.1	0.718 ± 0.23	1.14 ± 0.23
SAGGSAGGSMKITVEKDENGNYRVTVTLTVNGKEIKLTVTVPKNTTPEEVKKKAEELAKELLKSAGGSAGGS [r12_69_TrROS_Hall]	4.39 ± 0.55	5.13 ± 0.44	> 6
SAGGSAGGSMKKIKIEVYNKDGSKTELPLSEILKLYDFDAEEIKKFLEKLFPKDVKFKIEIEGSAGGSAGGS [r12_399_TrMRF]	1.33 ± 0.061	2.53 ± 0.05	2.31 ± 0.17
SAGGSAGGSMKLPPELKGKKIRIRVRNKNGETVEAEATVLEDGTIEIKIEGLSEEEITEIEIESAGGSAGGS [r12_477_TrROS_Hall]	2.36 ± 0.038	2.21 ± 0.035	2.3 ± 0.076
SAGGSAGGSMKLVTVKMKRPNGPVELTPVLPVDPSETLEEVKERVLELYPGAEITEITVTPDESAGGSAGGS [r12_738_JUSTAS]	-0.358 ± 0.11	0.708 ± 0.15	0.457 ± 0.15
SAGGSAGGSMKTITVPPEVLAALPLEEIVERNTSPDEEVEVEFVEEPGPVTVIIDTKKKPEHHSAGGSAGGS [r12_716_JUSTAS]	-0.95 ± 0.26	0.551 ± 0.015	0.252 ± 0.092
SAGGSAGGSMKVEIKFPDGSVKTIPLSPEEPDVPPEALVKELGADNVTITYYTPDGVPINLGISAGGSAGGS [r12_411_JUSTAS]	0.297 ± 0.058	0.916 ± 0.03	0.706 ± 0.053
SAGGSAGGSMKVVKVELTLTGPGGEVTYLEEEIEVPEDELGEIEVSLPDENLSYEVTVEVIEESAGGSAGGS [r12_354_JUSTAS]	0.444 ± 0.12	1.41 ± 0.071	1.12 ± 0.18
SAGGSAGGSMLEEKIKQVPKSEKATITIKVKNENGKWKVVTVEVTYIEGKNEYEVKITITPEPGSAGGSAGG [r6_545_JUSTAS]	1.73 ± 0.2	3.04 ± 0.18	2.29 ± 0.3

Reference: the supplement of paper PMC12764529
